In PMC7035956 (Nature chemical biology, 2019):

B1: Ube2T (enzyme)
chain: MQRASRLKRELHMLATEPPPGITCWQDKDQMDDLRAQILGGANTPYEKGVFKLEVIIPERYPFEPPQIRFLTPIYHPNIDSAGRICLDVLKLPPKGAWRPSLNIATVLTSIQLLMSEPNPDDPLMADISSEFKYNKPAFLKNARQWTEKHARQKQKADEEEMLDNLPEAGDSRVHNSTQKRKASQLVGIEKKFHPDV
B2: Ube2T R84S (enzyme)
chain: MQRASRLKRELHMLATEPPPGITCWQDKDQMDDLRAQILGGANTPYEKGVFKLEVIIPERYPFEPPQIRFLTPIYHPNIDSAGSICLDVLKLPPKGAWRPSLNIATVLTSIQLLMSEPNPDDPLMADISSEFKYNKPAFLKNARQWTEKHARQKQKADEEEMLDNLPEAGDSRVHNSTQKRKASQLVGIEKKFHPDV
B3: Ube2T R84S+K91A+K95A (enzyme)
chain: MQRASRLKRELHMLATEPPPGITCWQDKDQMDDLRAQILGGANTPYEKGVFKLEVIIPERYPFEPPQIRFLTPIYHPNIDSAGSICLDVLALPPAGAWRPSLNIATVLTSIQLLMSEPNPDDPLMADISSEFKYNKPAFLKNARQWTEKHARQKQKADEEEMLDNLPEAGDSRVHNSTQKRKASQLVGIEKKFHPDV
B4: Ube2T D32A+D33A+L92A (enzyme)
chain: MQRASRLKRELHMLATEPPPGITCWQDKDQMAALRAQILGGANTPYEKGVFKLEVIIPERYPFEPPQIRFLTPIYHPNIDSAGRICLDVLKAPPKGAWRPSLNIATVLTSIQLLMSEPNPDDPLMADISSEFKYNKPAFLKNARQWTEKHARQKQKADEEEMLDNLPEAGDSRVHNSTQKRKASQLVGIEKKFHPDV
B5: Ube2T K95A (enzyme)
chain: MQRASRLKRELHMLATEPPPGITCWQDKDQMDDLRAQILGGANTPYEKGVFKLEVIIPERYPFEPPQIRFLTPIYHPNIDSAGRICLDVLKLPPAGAWRPSLNIATVLTSIQLLMSEPNPDDPLMADISSEFKYNKPAFLKNARQWTEKHARQKQKADEEEMLDNLPEAGDSRVHNSTQKRKASQLVGIEKKFHPDV
B6: FANCL RING (FANCL^R) (domain or fragment)
chain: EIDFPARAILEKSDFTMDCGICYAYQLDGTIPDQVCDNSQCGQPFHQICLYEWLRGLLTSRQSFNIIFGECPYCSKPITLKMSGRKH
B7: Ube2T K91A (enzyme)
chain: MQRASRLKRELHMLATEPPPGITCWQDKDQMDDLRAQILGGANTPYEKGVFKLEVIIPERYPFEPPQIRFLTPIYHPNIDSAGRICLDVLALPPKGAWRPSLNIATVLTSIQLLMSEPNPDDPLMADISSEFKYNKPAFLKNARQWTEKHARQKQKADEEEMLDNLPEAGDSRVHNSTQKRKASQLVGIEKKFHPDV
B8: Ube2T T23R+W25Q (enzyme)
chain: MQRASRLKRELHMLATEPPPGIRCQQDKDQMDDLRAQILGGANTPYEKGVFKLEVIIPERYPFEPPQIRFLTPIYHPNIDSAGRICLDVLKLPPKGAWRPSLNIATVLTSIQLLMSEPNPDDPLMADISSEFKYNKPAFLKNARQWTEKHARQKQKADEEEMLDNLPEAGDSRVHNSTQKRKASQLVGIEKKFHPDV

Assays:
[1] = biological target: Xenopus laevis FANCD2 (xFANCD2) (Xenopus laevis); test: MST
[2] = biological target: T1, FANCL URD-RING fragment (FANCL^UR) (human, UniProt Q9NW38 109-375); test: ITC
T1 sequence: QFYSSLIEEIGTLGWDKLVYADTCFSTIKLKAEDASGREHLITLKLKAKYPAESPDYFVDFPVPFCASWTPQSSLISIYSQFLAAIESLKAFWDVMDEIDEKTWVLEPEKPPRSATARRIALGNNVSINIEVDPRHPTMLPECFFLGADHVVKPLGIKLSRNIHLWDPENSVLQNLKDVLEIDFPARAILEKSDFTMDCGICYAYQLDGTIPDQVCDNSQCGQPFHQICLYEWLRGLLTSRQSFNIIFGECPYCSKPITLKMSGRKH

Ube2T = biological target: B1; test: ITC
Ube2T T23R+W25Q = biological target: B8; test: ITC
Ube2T D32A+D33A+L92A = biological target: B4; test: ITC

Molecule	Kd [2]	binding result [2]	other results
Ube2T^1-152 (from UniProt Q9NPD8 1-152) (domain or fragment)	–	–	Kd [1]: 320000 nM
Ube2Tv3 in the Ube2T^1-152 background (E54R+P93G+P94G) (from UniProt Q9NPD8 1-152) (domain or fragment)	–	–	Kd [1]: 238000 nM
B1	~119 nM	–	–
B2	–	binds	–
B3	–	binds	–
B4	~119 nM	–	–
B5	–	binds	–
B6	–	–	Kd (Ube2T): ~253 nM; Kd (Ube2T T23R+W25Q): ~253 nM; Kd (Ube2T D32A+D33A+L92A): ~253 nM
B7	–	binds	–
B8	200 nM	–	–
